The values below come from patent US9395368B2, “Methods, agents and peptides for inducing an immune response to matrix metalloproteinase-2 expressing tumors” (New York University, priority 2010, dated 2016).

What all share (format): cell-based, human
The subject of test [1] is CD40, CD80, CD83, CD86, HLA-DR and CCR7 on DCs. The test can be described thus: Expression of maturation markers by DCs. The method, then:
Antibodies. Allophycocyanin-conjugated antibody to CCR-7 (150503) was purchased from R&D Systems. Unconjugated (10 μg/mL for blocking experiments) or phycoerythrin-conjugated antibody to OX40L (11C3.1) was from Biolegend. Blocking antibody to IL-4 (8F12; 10 μg/mL) was from Acris. Antibodies to human Vβ chains covering 70% of the repertoire (10Test Beta Mark; Beckman Coulter) were used according to the manufacturer's instructions. Fluorescein isothiocyanate-conjugated antibody to IL-12p35/IL-12p70 (B-T21) and IFNAR1 (EP899Y) were from Abcam. Phycoerythrine-conjugated antibodies to IL-12p40/IL-12p70 (C8.6), IL-10 (B-T10), CD203c (FR3-16A11) were from Miltenyi Biotec. Blocking antibody to HLA-DQ (SPVL3; 20 μg/mL) was from NeoMarkers. […]
(§1) Dendritic cell preparation and activation. […] Immature DCs were harvested on day 5 and matured using poly(I:C) at 5 μg/mL/10^6 DCs (Amersham) Secretion of IL-12p70, TNFα, IL-1β, IL-6, IL-8 and IL-10 was assessed on both immature and mature DCs using the Human Inflammatory Cytokine Cytometric Bead Array (BD Pharmingen).
We next evaluated whether DCs could be involved in the polarization of MMP-2-specific CD4^+ T cells.

In test [2] the test system is phosphorylated (Y701) STAT1. Briefly: Intracellular staining of phosphorylated (Y701) STAT1 in DCs. The following applies: DCs preincubated 1 h (5 μg/mL) prior to poly(I:C), 3 h. The method, then: Immature DCs were incubated with MMP-2 (0.5 μg/mL or 5 μg/mL) and poly(I:C)-matured 1 h later. IL-12 levels were measured 16 h later. (A) Results are represented as a percentage of IL-12p70 levels, measured by CBA, produced when DCs were incubated with poly(I:C) only (n=11). (B) For intracellular staining of IL-12p35 and IL-12p40 chains, Brefeldin A was added 4 h after poly(I:C) activation and cells were stained after an additional 12 h incubation. Numbers in the upper right quadrants are the percentages of each population for a representative donor (n=3). (C,D) Immature DCs were incubated with MMP-2 for 1 h (5 μg/mL) before poly(I:C) maturation. Intracellular staining of phosphorylated (Y701) STAT1 (P-STAT1) was performed 3 h later. A representative donor (C) and results for all 3 donors (D) are shown. […] (E) Immature DCs were incubated with MMP-2 and poly(I:C)-matured 1 h later. IFNβ levels were measured by ELISA 16 h later. Results are represented as a percentage of IFNβ levels produced when DCs were incubated with poly(I:C) only (n=9). […] IFNAR1 protein expression was detected the next day by Western blot analysis using a rabbit monoclonal antibody. […]
Intracellular staining T-bet and GATA-3 expression was measured on resting T cells. […] Cytokine production by T cells was also assessed by intracellular staining T cells were stimulated with 2 μM overlapping peptides. […]

In test [3] the test system is IL-12p70 production by DCs. Briefly: IL-12p70 production by poly(I:C)-matured DCs (CBA). The following applies: DCs stimulated with poly(I:C). The method, then:
Immature DCs were incubated with MMP-2 (0.5 μg/mL or 5 μg/mL) and poly(I:C)-matured 1 h later. IL-12 levels were measured 16 h later. (A) Results are represented as a percentage of IL-12p70 levels, measured by CBA, produced when DCs were incubated with poly(I:C) only (n=11). (B) For intracellular staining of IL-12p35 and IL-12p40 chains, Brefeldin A was added 4 h after poly(I:C) activation and cells were stained after an additional 12 h incubation. Numbers in the upper right quadrants are the percentages of each population for a representative donor (n=3). (C,D) Immature DCs were incubated with MMP-2 for 1 h (5 μg/mL) before poly(I:C) maturation. Intracellular staining of phosphorylated (Y701) STAT1 (P-STAT1) was performed 3 h later. A representative donor (C) and results for all 3 donors (D) are shown. […] (E) Immature DCs were incubated with MMP-2 and poly(I:C)-matured 1 h later. IFNβ levels were measured by ELISA 16 h later. Results are represented as a percentage of IFNβ levels produced when DCs were incubated with poly(I:C) only (n=9). (F,G) 10^6DCs/lane were treated with 0.1 μg MMP-2 or controls. Poly(I:C) was added 1 h later. IFNAR1 protein expression was detected the next day by Western blot analysis using a rabbit monoclonal antibody. A representative donor (F) and results for all 7 donors (G) are shown. (H) The rhIFNAR1 (5 μg; ≈110 kD) was incubated overnight with 0.3 μg MMP-2 before performing Western blot analysis for IFNAR1. The second band (around 90 kD) and the third band (25 kD) very likely correspond to either a degraded form of the protein still recognized by the antibody or a contaminant present in the commercial protein preparation and non-specifically recognized by the antibody. MMP-2 enzymatic activity was controlled (FIG. 13C-D). […]
as §1

For a further test, the system named is OX40L expression on DCs. The test can be described thus: OX40L expression on DCs by surface staining. The note with it: immature and poly(I:C)-matured DCs, n=9, 24 h. The method, then:
Immature and poly(I:C)-matured DCs were incubated with active or HI MMP-2 (0.5 μg/mL or 5 μg/mL) for 24 h. MMP-2 enzymatic activity was controlled (FIG. 13C-D). OX40L expression was assessed by surface staining (A) Histogram plots are shown for representative donor HD1228. Isotype control is represented in tinted gray. (B) Mean fluorescent intensities are represented for all 9 donors tested. […] P values≦0.0167 (*) were considered statistically significant using a Bonferroni correction for 3 comparisons for each DC type. See also FIG. 12.
Dendritic cell preparation and activation. PBMCs were purified from healthy—(HD) or cord blood—(CB) donors and plated at 40×10^6 cells/10 mL/dish in complete IMDM with 5% PHS. Cells were allowed to adhere for 2 h at 37° C. Non-adherent cells were removed. The monocyte-enriched fraction was supplemented with 100 UI/mL rhGMCSF and 300 UI/mL rhIL-4 (R&D Systems) on days 0, 2 and 4. Immature DCs were harvested on day 5 and matured using poly(I:C) at 5 μg/mL/10^6 DCs (Amersham) Secretion of IL-12p70, TNFα, IL-1β, IL-6, IL-8 and IL-10 was assessed on both immature and mature DCs using the Human Inflammatory Cytokine Cytometric Bead Array (BD Pharmingen).

B1: inactivated MMP-2: MMP-2 enzyme inactivated either by heating or by addition of the MMP-2 inhibitor III; mode not stated at the place (protein, listed as Homo sapiens)
chain: MEALMARGALTGPLRALCLLGCLLSHAAAAPSPIIKFPGDVAPKTDKELAVQYLNTFYGCPKESCNLFVLKDTLKKMQKFFGLPQTGDLDQNTIETMRKPRCGNPDVANYNFFPRKPKWDKNQITYRIIGYTPDLDPETVDDAFARAFQVWSDVTPLRFSRIHDGEADIMINFGRWEHGDGYPFDGKDGLLAHAFAPGTGVGGDSHFDDDELWTLGEGQVVRVKYGNADGEYCKFPFLFNGKEYNSCTDTGRSDGFLWCSTTYNFEKDGKYGFCPHEALFTMGGNAEGQPCKFPFRFQGTSYDSCTTEGRTDGYRWCGTTEDYDRDKKYGFCPETAMSTVGGNSEGAPCVFPFTFLGNKYESCTSAGRSDGKMWCATTANYDDDRKWGFCPDQGYSLFLVAAHEFGHAMGLEHSQDPGALMAPIYTYTKNFRLSQDDIKGIQELYGASPDIDLGTGPTPTLGPVTPEICKQDIVFDGIAQIRGEIFFFKDRFIWRTVTPRDKPMGPLLVATFWPELPEKIDAVYEAPQEEKAVFFAGNEYWIYSASTLERGYPKPLTSLGLPPDVQRVDAAFNWSKNKKTYIFAGDKFWRYNEVKKKMDPGFPKLIADAWNAIPDNLDAVVDLQGGGHSYFFKGAYYLKLENQSLKSVKFGSIKSDWLGC
modifications: heat or inhibitor inactivated
Turning to B1, in test [1], the “expression levels of maturation markers CD40, CD80, CD83, CD86, HLA-DR and CCR7” value is listed as “not significantly affected”. In test [2], the STAT1 phosphorylation result was “not”. Further, the “reduction in IL-12” value in test [3] is on record as “not observed”. In addition, the “OX40L expression on DCs” value in the test on OX40L expression on DCs was “significantly increased”.
